The values that follow are results of earlier work, collected in paper PMC2375062.

The data set deals with uPA (Homo sapiens) (UniProt P00749).

For orientation: Kd means a measure of binding affinity in units of concentration. Turning to glu-plasminogen (from UniProt P00747), the Kd was 50 nM.
